Test results taken from US9518268B2, “Drought tolerant transgenic plants and method of making same” (PURDUE RESEARCH FOUNDATION, priority 2013, dated 2016).

B1: PYL13: Arabidopsis thaliana PYR/PYL/RCAR family protein PYL13, SEQ ID NO: 1 (protein, listed as Arabidopsis thaliana)
chain: MESSKQKRCRSSVVETIEAPLPLVWSILRSFDKPQAYQRFVKSCTMRSGGGGGKGGEGKGSVRDVTLVSGFPADFSTERLEELDDESHVMVVSIIGGNHRLVNYKSKTKVVASPEDMAKKTVVVESYVVDVPEGTSEEDTIFFVDNIIRYNLTSLAKLTKKMMK

Test system: RD29B-LUC expression
Assay: ABA-independent induction of RD29B-LUC in triple mutant protoplasts
Assay type: cell-based, Arabidopsis
Conditions: abi1/hab1/abi2 protoplasts
From the text: The basal RD29B-LUC expression level was elevated in protoplasts co-transfected with PP2CA-PYL13, HAI2-PYL13, or HAI3-PYL13, which is consistent with PYL13 inhibition of these PP2Cs in an ABA-independent manner in vivo (FIG. 4A). To exclude interference by endogenous PP2Cs in wild type protoplasts and to assess the ABA-independent selective inhibition of PP2Cs by PYL13, PYL13 was co-expressed with PP2CA, HAI1, HAI2, and HAI3 in abi1/hab1/abi2 triple mutant protoplasts, as shown in FIG. 4C. After transfection, protoplasts were incubated for 4.5 h under light in the absence of ABA. Error bars indicate s.e.m. (n=3).
Expression of RD29B-LUC in the absence of ABA was increased in the transfections of PYL9-K63Q/L89F or PYL11-K39Q/L66F together with SnRK2.6 and ABF2 to a considerable level. The ABA-independent RD29B-LUC expression is about 70% of that in the presence of 5 μM ABA in the transfection of PYL11-K39Q/L66F, while about 30˜60% in the transfection of PYL9-K63Q/L89F (FIG. 4). […] RD29B-LUC was used as the ABA-responsive reporter. ZmUBQ-GUS was used as the internal control. After transfection, protoplasts were incubated for 4.5 h under light in the absence of ABA (open bars) or in the presence of 5 μM ABA (closed bars). Error bars indicate s.e.m. (n=4).
Assays for transient expression in protoplasts were performed as described (Fujii et al., 2009). Leaf strips (0.5 mm) were cut from the middle part of second leaves using a razor blade (VWR SCIENTIFIC) and submerged in 15 mL of enzyme solution containing 20 mM MES, pH 5.7, 1.5% (w/v) cellulase R10 (YAKULT PHARMACEUTICAL INDUSTRY), 0.4% (w/v) macerozyme R10 (YAKULT PHARMACEUTICAL INDUSTRY), 0.4 M mannitol, 20 mM KCl, 10 mM CaCl2, 1 mM 2-mercaptoethanol, and 0.1% BSA. The leaves were vacuum infiltrated for 30 min and then incubated without shaking for 3 h in the dark at room temperature. The enzyme/protoplast solution was diluted with 15 mL of W5 solution (2 mM MES, pH 5.7, 154 mM NaCl, 125 mM CaCl2, and 5 mM KCl) and filtered with a 75-μm nylon mesh. Protoplasts were centrifuged at 100 g for 2 min in a 30-mL round-bottomed tube (SARSTEDT), resuspended in W5 solution, and rested for 30 min at room temperature.
Before transfection, protoplasts were changed into MMg solution (4 mM MES, pH 5.7, 0.4 M mannitol, and 15 mM MgCl2) to a final concentration of 2×10^5 cells per microliter. Protoplasts (100 μl) were gently and thoroughly mixed with the plasmid DNA mixture (less than 10 μl) and 110 μl of PEG solution (40% w/v PEG-4000, 0.2 M mannitol, and 100 mM CaCl2), incubated for 5 min, washed with 440 μl of W5 solution, and resuspended in 50 μl of WI solution (4 mM MES, pH 5.7, 0.5 M mannitol, and 20 mM KCl). After transfection, protoplasts were incubated in WI solution without ABA or with 5 μM ABA under light. The protoplasts were harvested after 4.5 h, frozen in liquid N2, and stored at −80° C.
The frozen protoplasts were resuspended in 50 μl of protoplast lysis buffer containing 2.5 mM Tris-phosphate, pH 7.8, 1 mM DTT, 2 mM DACTAA, 10% (v/v) glycerol, and 1% (v/v) Triton X-100. Protoplast lysates (20 μl) were mixed with 100 μl of LUC mix (PROMEGA), and LUC luminescence was measured with a plate reader (Wallac VICTOR2 plate reader).
Protoplast lysates (2 μl) were mixed with 10 μl of 4-methylumbelliferyl β-D-glucuronide (MUG) substrate mix (10 mM Tris-HCl, pH 8, 1 mM MUG [GOLD BIOTECHNOLOGY], and 2 mM MgCl2). After the mixture was kept for 30 min at 37° C., 100 μl of 0.2 M Na2CO3 was added, and GUS activity was measured using the plate reader with the excitation filter at 355 nm and the emission filter at 460 nm.
All the plasmids used in this assay were purified with the QIAGEN Plasmid Maxi Kit or the QIAGEN Plasmid Midi Kit. The quality of plasmid DNA is important for high transfection efficiency. RD29B::LUC (7 μg of plasmid per transfection) was used as the ABA-responsive reporter. ZmUBQ::GUS (2 μg of plasmid per transfection) was used as the internal control. […]

Molecule	expression of RD29B-LUC in the absence of ABA (with PP2CA only, SnRK2.6 and ABF2 (control transfection))	expression of RD29B-LUC in the absence of ABA (with HAI1, SnRK2.6 and ABF2)	expression of RD29B-LUC in the absence of ABA (with PP2CA, HAI2, or HAI3, SnRK2.6 and ABF2)
PYL2: Arabidopsis thaliana PYL family ABA receptor protein PYL2, AT2G26040	an increase was not observed		
B1		an increase was not observed	increased
